According to patent publication US20210393777A1 (SHANGHAI JUNSHI BIOSCIENCES, published 2021):
Each block holds one binder with its values, some of them ahead of it.

Biological target: T1, human PCSK9 (human, UniProt Q8NBP7 31-692)
T1 construct: Soluble analyte in the ForteBio assay; also called human proprotein convertase subtilisin/kexin type 9
Test: ForteBio BLI, biotinylated antibody on streptavidin probes, PCSK9 in solution
Method: ForteBio affinity assays were implemented according to the prior art. […] After the buffer exchange, the protein content was measured by the absorbance at 280 nm, and the concentration was adjusted to 2 mg/mL. 2 mg of Sulfo-NHS-Biotin was equilibrated to room temperature and added to […] of ultrapure water to give a 10 mM Biotin stock solution. 1 mL of 2 mg/mL JS002 and evolocumab were transferred to a new EP tube, and 8 μL of biotin stock solution was added according to a ratio of protein:biotin=1:6. The mixture was well mixed and incubated at room temperature for 1-2 h. […] After the buffer exchange, the protein content was measured by the absorbance at 280 nm, and the concentration was adjusted to 1-2 mg/mL. The biotinylated protein was aliquoted in tubes at 0.1 mL per tube, and was stored at −80° C. with no more than 1 freeze-thaw. […] The affinity constant was calculated by the formula=koff/kₒₙ.

Kd: 0.651 nM
koff: 3.21e-05 s⁻¹
kon: 49200 M⁻¹ s⁻¹
B1: evolocumab (antibody, V domains shown)
VH: QVQLVQSGAEVKKPGASVKVSCKASGYTLTSYGISWVRQAPGQGLEWMGWVSFYNGNTNYAQKLQGRGTMTTDPSTSTAYMELRSLRSDDTAVYYCARGYGMDVWGQGTTVTVSS
VL: QSALTQPASVSGSPGQSITISCTGTSSDVGGYNSVSWYQQHPGKAPKLMIYEVSNRPSGVSNRFSGSKSGNTASLTISGLQAEDEADYYCNSYTSTSMVFGGGTKLTVL

Kd: 0.0215 nM
koff: 1.3e-06 s⁻¹
kon: 60200 M⁻¹ s⁻¹
B2: JS002 (antibody, human IgG4 S228P, kappa, V domains shown)
VH: QVQLQESGPGLVKPSQTLSLTCTVSGFSISSYGIHWIRQSPGKGLEWIGVIWRGGITDYNAPFMSRVTISKDNSKNQVSFKLSSVTAADTAVYYCANHRDWGQGTLVTVSS
VL: DIQMTQSPSSLSASVGDRVTITCQASQDINKYIDWYQHKPGKAPKLLIHYASTLQPGVPSRFSGSGSGRDYTFTISSLQPEDIATYYCLQYDDLWTFGQGTKVEIKR
notes: Full-length humanized antibody; In the ForteBio assay it was biotinylated with Sulfo-NHS-Biotin (protein:biotin 1:6) and held on streptavidin probes; Tested from various liquid formulations (no. 20, 28-31); also called recombinant humanized anti-PCSK9 monoclonal antibody; anti-PCSK9 antibody
